Experimental findings from patent WO2005044853A2 (dated 2005) are described below.

Assay [1] deals with murine VEGF (mouse) (UniProt Q00731). The experiment in a line: BIAcore or solution binding ELISA, Fab, measured as control in the same assays. (In general: In SPR one partner is held on a chip, and binding of the other changes the refractive index at the surface.)
Assay [2] shares this target. Kind of assay: 25C; given as unpublished results.
Assay [3] addresses T1, mouse placenta growth factor (PlGF-2) (mouse, UniProt P49764 24-158, limits assumed).
T1 construct: also called murine P1GF-2
T1 sequence (looked up): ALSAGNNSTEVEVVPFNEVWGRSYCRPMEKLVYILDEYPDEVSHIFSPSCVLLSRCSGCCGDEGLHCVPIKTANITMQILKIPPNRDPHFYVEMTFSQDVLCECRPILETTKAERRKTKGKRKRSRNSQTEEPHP
The experiment in a line: direct ELISA on homolog-coated wells (2ug/ml), increasing G6 Fab. A general note: An ELISA detects its analyte on a solid surface through an enzyme-linked reagent.

The target of assay [4] is T2, murine VEGF-D (mouse, UniProt P97946 98-206, limits assumed).
T2 construct: also called mVEGF-D
T2 sequence (looked up): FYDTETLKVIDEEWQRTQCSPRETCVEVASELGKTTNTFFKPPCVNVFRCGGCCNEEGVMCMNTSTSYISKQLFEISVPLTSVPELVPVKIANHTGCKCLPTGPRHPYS
The description is as above.

The target of assay [5] is T3, human placenta growth factor (PlGF-2) (human, UniProt P49763-3 19-170, limits assumed).
T3 construct: also called human P1GF-2
T3 sequence (looked up): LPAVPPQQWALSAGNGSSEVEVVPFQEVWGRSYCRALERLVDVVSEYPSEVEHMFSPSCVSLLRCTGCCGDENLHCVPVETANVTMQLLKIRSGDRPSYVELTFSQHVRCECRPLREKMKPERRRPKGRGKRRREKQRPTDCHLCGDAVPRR
The assay is described as above.

Assay [6] concerns the target T4, human VEGF-B (human, UniProt P49765-2 22-188, limits assumed).
T4 sequence (looked up): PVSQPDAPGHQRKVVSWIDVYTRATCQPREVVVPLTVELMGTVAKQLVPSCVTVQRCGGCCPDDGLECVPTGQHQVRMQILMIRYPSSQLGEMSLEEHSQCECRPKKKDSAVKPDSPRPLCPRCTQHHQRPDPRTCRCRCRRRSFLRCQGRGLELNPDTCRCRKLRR
Described as above.

murine VEGF (mouse), sequence (Q00731 other isoform, or with tags, fused parts or gaps limits assumed): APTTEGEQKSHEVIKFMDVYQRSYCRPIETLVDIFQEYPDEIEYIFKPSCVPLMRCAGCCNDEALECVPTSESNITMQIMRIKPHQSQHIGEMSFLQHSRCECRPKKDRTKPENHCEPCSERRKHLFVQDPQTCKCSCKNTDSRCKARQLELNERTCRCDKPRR

In the case of Y0317 Fab, the affinity in assay [1] turned out to be 350 nM. The Kd in assay [2] was determined as 300 nM.

B1: G6 Fab (Fab, V domains shown)
VH: EVQLVESGGGLVQPGGSLRLSCAASGFTISDYWIHWVRQAPGKGLEWVAGITPAGGYTYYADSVKGRFTISADTSKNTAYLQMNSLRAEDTAVYYCARFVFFLPYAMDYWGQGTLVTVSS
VL: DIQMTQSPSSLSASVGDRVTITCRASQDVSTAVAWYQQKPGKAPKLLIYSASFLYSGVPSRFSGSGSGTDFTLTISSLQPEDFATYYCQQSYTTPPTFGQGTKVEIKR
notes: also called G6 antibody; G6 clone
In the case of B1, the binding result in assay [3], in assay [4], in assay [5] and in assay [6] was “no binding” in each case.

The Kd is the constant that tells how readily two partners part at equilibrium. The low end stands for higher affinity, the high end for lower affinity.
